The source of these data is patent publication US20230242633A1 (KANAPH THERAPEUTICS, published 2023).

The target of assay [1] is T1, mouse C3b (mouse, UniProt P01027 25-666; P01027 749-1663, limits assumed). In words: ELISA, mouse C3b immobilised on the plate; no upper plateau in the range shown. The source says:
(§1) Specifically, a human C3b protein was immobilized on a plate, and C1.01, C1.02, C1.03, and C1.04, and hIgG1 as a control were bound thereto. Next, an anti-human immunoglobulin G antibody and an anti-horseradish peroxidase (HRP) antibody were sequentially bound thereto. Moreover, a mouse C3b protein was immobilized on a plate, and C1.01m to C1.03m containing mouse CRIg were bound to mouse C3b.

The target of assay [2] is T1, mouse C3b. In words: Biacore SPR, 1:1 fit; analyte series 0.78125-50 nM; the analyte is not printed on the sheet, mouse C3b by legend paragraph 26 and the C3b dilution series of paragraph 225. As for the experimental part:
(§2) A C3b stock solution was diluted to 50 nM using a 1×HBS-EP+ buffer. Human VEGF165 was diluted to 5 nM using a 1×HBS-EP+ buffer. The 50 nM and 5 nM solutions were then diluted to 0.78125 nM and 0.078125 nM. In the sample step, the diluted antigens were injected into the flow cells at a rate of 30 μL/min. Two 0 nM antigens (1×HBS-EP+ buffer) were used and removed from the reference signal. Binding for 180 seconds and separation for 400 seconds were performed. After the separation time, a stabilization step for 60 seconds was performed. In the regeneration step, 10 mM glycine (pH 1.5) was injected into the flow cells at a rate of 30 μL/min for 30 seconds, followed by a stabilization step for 60 seconds.
(§3) After subtracting the reference and 0 nM values from the sample values, binding kinetics were calculated using Biacore Insight Evaluation Software (Version 2.0.15.12933) and 1:1 binding model for curved fitting.

The next assay concerns the target T2, human VEGF165 (human, UniProt P15692-4 27-191).
T2 construct: also called human VEGF165 protein
Put plainly: Biacore SPR; the analyte is not printed on the sheet, human VEGF165 by legend paragraph 26. How it is done: In order to measure the binding force of the fusion protein, the physical properties of the prepared fusion protein were analyzed using Biacore 8K (GE Healthcare, 29129951) instrument.
as §2, §3

In assay [3] the target is T1, mouse C3b. Put plainly: ELISA, mouse C3b immobilised on the plate; the printed value lies above the highest concentration shown (Log10 about 1.2), the curve reaches only OD450 about 1.
Description: as §1

T1 sequence (P01027 25-666 limits assumed, chain 1 of 2): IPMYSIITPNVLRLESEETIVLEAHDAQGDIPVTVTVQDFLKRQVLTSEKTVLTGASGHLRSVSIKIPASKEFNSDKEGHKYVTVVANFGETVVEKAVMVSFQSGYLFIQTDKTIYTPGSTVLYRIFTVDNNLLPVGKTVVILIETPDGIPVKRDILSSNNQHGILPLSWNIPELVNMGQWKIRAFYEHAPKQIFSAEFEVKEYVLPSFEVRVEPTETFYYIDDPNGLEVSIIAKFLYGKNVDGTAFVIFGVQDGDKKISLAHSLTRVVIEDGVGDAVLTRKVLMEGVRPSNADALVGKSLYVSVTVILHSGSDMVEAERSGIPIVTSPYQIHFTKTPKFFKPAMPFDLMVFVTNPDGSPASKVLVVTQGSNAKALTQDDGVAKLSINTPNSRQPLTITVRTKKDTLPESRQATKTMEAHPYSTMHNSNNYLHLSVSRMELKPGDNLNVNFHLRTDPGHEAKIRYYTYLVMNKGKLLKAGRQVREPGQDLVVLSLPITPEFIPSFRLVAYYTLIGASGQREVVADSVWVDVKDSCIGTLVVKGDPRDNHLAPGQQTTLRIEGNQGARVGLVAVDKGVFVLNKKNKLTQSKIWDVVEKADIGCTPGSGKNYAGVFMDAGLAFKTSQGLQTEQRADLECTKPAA
T1 sequence (P01027 749-1663 limits assumed, chain 2 of 2): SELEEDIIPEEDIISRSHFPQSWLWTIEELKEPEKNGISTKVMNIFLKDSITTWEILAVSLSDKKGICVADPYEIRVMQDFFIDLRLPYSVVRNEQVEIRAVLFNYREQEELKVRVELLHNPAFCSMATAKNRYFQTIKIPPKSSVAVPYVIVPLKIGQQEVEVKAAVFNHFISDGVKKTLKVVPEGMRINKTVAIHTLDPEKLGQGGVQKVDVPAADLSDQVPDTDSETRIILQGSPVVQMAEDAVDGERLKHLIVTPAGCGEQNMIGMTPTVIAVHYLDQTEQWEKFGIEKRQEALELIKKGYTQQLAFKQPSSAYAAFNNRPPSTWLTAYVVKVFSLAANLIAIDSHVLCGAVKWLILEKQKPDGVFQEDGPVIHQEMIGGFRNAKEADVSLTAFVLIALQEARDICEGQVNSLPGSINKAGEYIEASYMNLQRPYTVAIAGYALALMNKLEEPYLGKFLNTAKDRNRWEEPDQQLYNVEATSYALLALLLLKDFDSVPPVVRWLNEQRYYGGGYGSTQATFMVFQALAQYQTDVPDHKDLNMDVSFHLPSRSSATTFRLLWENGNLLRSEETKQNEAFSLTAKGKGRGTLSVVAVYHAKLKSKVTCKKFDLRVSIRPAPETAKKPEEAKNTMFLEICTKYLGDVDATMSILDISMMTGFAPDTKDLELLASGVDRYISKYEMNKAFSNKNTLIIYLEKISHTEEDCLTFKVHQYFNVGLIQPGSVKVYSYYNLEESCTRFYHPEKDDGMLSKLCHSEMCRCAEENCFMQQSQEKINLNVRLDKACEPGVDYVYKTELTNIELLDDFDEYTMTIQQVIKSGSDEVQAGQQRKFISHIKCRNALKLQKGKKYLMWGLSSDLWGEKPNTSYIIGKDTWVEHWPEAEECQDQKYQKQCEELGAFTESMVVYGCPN
T2 sequence (P15692 other isoform, or with tags, fused parts or gaps): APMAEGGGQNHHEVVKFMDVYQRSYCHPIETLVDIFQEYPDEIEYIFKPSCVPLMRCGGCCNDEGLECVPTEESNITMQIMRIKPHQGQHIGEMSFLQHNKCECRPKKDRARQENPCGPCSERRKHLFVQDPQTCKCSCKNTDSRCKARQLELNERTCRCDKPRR

B1: C1.01m (mu CRIg-mu IgG2a Fc DANG) (Fc fusion)
chain: HPTLKTPESVTGTWKGDVKIQCIYDPLRGYRQVLVKWLVRHGSDSVTIFLRDSTGDHIQQAKYRGRLKVSHKVPGDVSLQINTLQMDDRNHYTCEVTWQTPDGNQVIRDKIIELRVRKYNPPRINTEAPTTLHSSLEATTIMSSTSDLTTNGTGKLEETIAGSGRNLPGGGGSEPRGPTIKPCPPCKCPAPNLLGGPSVFIFPPKIKDVLMISLSPIVTCVVVAVSEDDPDVQISWFVNNVEVHTAQTQTHREDYGSTLRVVSALPIQHQDWMSGKEFKCKVNNKDLPAPIERTISKPKGSVRAPQVYVLPPPEEEMTKKQVTLTCMVTDFMPEDIYVEWTNNGKTELNYKNTEPVLDSDGSYFMYSKLRVEKKNWVERNSYSCSVVHEGLHNHHTTKSFSRTPGK
In turn, B1 displayed an EC50 with mouse C3b [1] of 0.821 µg/mL. This molecule also displayed a Kd with mouse C3b [2] of 0.987 pM.

B2: C1.02m (mu CRIg-mu IgG2a Fc DANG-VEGF binder) (Fc fusion)
chain: HPTLKTPESVTGTWKGDVKIQCIYDPLRGYRQVLVKWLVRHGSDSVTIFLRDSTGDHIQQAKYRGRLKVSHKVPGDVSLQINTLQMDDRNHYTCEVTWQTPDGNQVIRDKIIELRVRKYNPPRINTEAPTTLHSSLEATTIMSSTSDLTTNGTGKLEETIAGSGRNLPGGGGSEPRGPTIKPCPPCKCPAPNLLGGPSVFIFPPKIKDVLMISLSPIVTCVVVAVSEDDPDVQISWFVNNVEVHTAQTQTHREDYGSTLRVVSALPIQHQDWMSGKEFKCKVNNKDLPAPIERTISKPKGSVRAPQVYVLPPPEEEMTKKQVTLTCMVTDFMPEDIYVEWTNNGKTELNYKNTEPVLDSDGSYFMYSKLRVEKKNWVERNSYSCSVVHEGLHNHHTTKSFSRTPGGGGGSGGGGSSDTGRPFVEMYSEIPEIIHMTEGRELVIPCRVTSPNITVTLKKFPLDTLIPDGKRIIWDSRKGFIISNATYKEIGLLTCEATVNGHLYKTNYLTHRQTNTIIDVVLSPSHGIELSVGEKLVLNCTARTELNVGIDFNWEYPSSKHQHKKLVNRDLKTQSGSEMKKFLSTLTIDGVTRSDQGLYTCAASSGLMTKKNSTFVRVHEK
Turning to B2, it took 1.85 µg/mL to reach a half-maximal effect in the assay with mouse C3b [1] (EC50). The same molecule had a Kd with mouse C3b [2] of 7.97 pM. Also, the binding result in the assay with human VEGF165 is listed as “binds”.

B3: C1.03m (mu IgG2a Fc DANG-mu CRIg) (Fc fusion)
chain: EPRGPTIKPCPPCKCPAPNLLGGPSVFIFPPKIKDVLMISLSPIVTCVVVAVSEDDPDVQISWFVNNVEVHTAQTQTHREDYGSTLRVVSALPIQHQDWMSGKEFKCKVNNKDLPAPIERTISKPKGSVRAPQVYVLPPPEEEMTKKQVTLTCMVTDFMPEDIYVEWTNNGKTELNYKNTEPVLDSDGSYFMYSKLRVEKKNWVERNSYSCSVVHEGLHNHHTTKSFSRTPGGGGGSGGGGSHPTLKTPESVTGTWKGDVKIQCIYDPLRGYRQVLVKWLVRHGSDSVTIFLRDSTGDHIQQAKYRGRLKVSHKVPGDVSLQINTLQMDDRNHYTCEVTWQTPDGNQVIRDKIIELRVRKYNPPRINTEAPTTLHSSLEATTIMSSTSDLTTNGTGKLEETIAGSGRNLPG
Molecule B3 returned an EC50 with mouse C3b [3] of 31.1 µg/mL.
